± gives the standard deviation of the averaged measurements.
B1: library; a variant is named by its letters at N, in order (parent)
chain: GCUGUCACCGGUGCUUGGUACGUUAUAUUCAGCCGGUCUGAUGAGUCUNNNNNNAGACGAAACAGC

Columns and labels:
(6R,S)-folinic acid [1] = variants of: B1; assay: normalized RNA/DNA level without ligand (relative to sTRSVctl = 100) (log10 (% of sTRSVctl)); HEK293T overexpressing SLC46A1; higher = less ribozyme self-cleavage, higher mRNA level; conditions: without (6R,S)-folinic acid; ligand present: no
Summary of the method: (§1)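 Ribozyme switch library plasmids linked to reporters were introduced into HEK293T cells at 4 µg per 6-well well, with ligand, if any, added 1 h before. Total RNA was extracted with EDTA 72 h later, reverse-transcribed, amplified, barcoded and sequenced. RNA level was computed from RNA over DNA reads relative to a spiked-in non-cleaving sequence or the top sequences, then scaled and log-transformed. The top set was 25 sequences, values were ×100 and log10, and the cutoff was ≥100 DNA reads.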

(6R,S)-folinic acid [2] = variants of: B1; assay: normalized RNA/DNA level with ligand (relative to sTRSVctl = 100) (log10 (% of sTRSVctl)); HEK293T overexpressing SLC46A1; ligand concentration (+) RNA-Seq: 6 mM; higher = less ribozyme self-cleavage, higher mRNA level; conditions: with (6R,S)-folinic acid; ligand present: yes
Summary of the method: as §1

| Variant | normalized RNA/DNA level without ligand (log10) ((6R,S)-folinic acid [1]) | normalized RNA/DNA level with ligand (log10) ((6R,S)-folinic acid [2]) |
| --- | --- | --- |
| GCUGUCACCGGUGCUUGGUACGUUAUAUUCAGCCGGUCUGAUGAGUCUCGCCGCAGACGAAACAGC | 2.062 ± 0.0024 | 2.03 ± 0.047 |
| GCUGUCACCGGUGCUUGGUACGUUAUAUUCAGCCGGUCUGAUGAGUCUCGCCGGAGACGAAACAGC | 2.03 ± 0.026 | 2.034 ± 0.017 |
| GCUGUCACCGGUGCUUGGUACGUUAUAUUCAGCCGGUCUGAUGAGUCUCGCCGUAGACGAAACAGC | 2.038 ± 0.0097 | 2.05 ± 0.065 |
| GCUGUCACCGGUGCUUGGUACGUUAUAUUCAGCCGGUCUGAUGAGUCUUGCGAAAGACGAAACAGC | 1.966 ± 0.011 | 1.97 ± 0.029 |
| GCUGUCACCGGUGCUUGGUACGUUAUAUUCAGCCGGUCUGAUGAGUCUCGCGCCAGACGAAACAGC | 2.096 ± 0.0053 | 2.0477 ± 0.00068 |
| GCUGUCACCGGUGCUUGGUACGUUAUAUUCAGCCGGUCUGAUGAGUCUCGCGCAAGACGAAACAGC | 2.036 ± 0.014 | 2.04 ± 0.026 |
| GCUGUCACCGGUGCUUGGUACGUUAUAUUCAGCCGGUCUGAUGAGUCUGGCCUGAGACGAAACAGC | 2.064 ± 0.015 | 2.03 ± 0.085 |
| GCUGUCACCGGUGCUUGGUACGUUAUAUUCAGCCGGUCUGAUGAGUCUGGCCUUAGACGAAACAGC | 2.108 ± 0.0078 | 2.09 ± 0.042 |
| GCUGUCACCGGUGCUUGGUACGUUAUAUUCAGCCGGUCUGAUGAGUCUGGCCUCAGACGAAACAGC | 2.044 ± 0.018 | 2.06 ± 0.025 |
| GCUGUCACCGGUGCUUGGUACGUUAUAUUCAGCCGGUCUGAUGAGUCUGGCCUAAGACGAAACAGC | 2.04 ± 0.021 | 2.01 ± 0.045 |
| GCUGUCACCGGUGCUUGGUACGUUAUAUUCAGCCGGUCUGAUGAGUCUCGCGAAAGACGAAACAGC | 1.9769 ± 0.0003 | 2.01 ± 0.031 |
| GCUGUCACCGGUGCUUGGUACGUUAUAUUCAGCCGGUCUGAUGAGUCUCGCGAUAGACGAAACAGC | 1.939 ± 0.0057 | 1.97 ± 0.041 |
| GCUGUCACCGGUGCUUGGUACGUUAUAUUCAGCCGGUCUGAUGAGUCUCGCGACAGACGAAACAGC | 2.0427 ± 0.0011 | 2.04 ± 0.029 |
| GCUGUCACCGGUGCUUGGUACGUUAUAUUCAGCCGGUCUGAUGAGUCUCGCGAGAGACGAAACAGC | 1.98 ± 0.039 | 2 ± 0.037 |
| GCUGUCACCGGUGCUUGGUACGUUAUAUUCAGCCGGUCUGAUGAGUCUAGCGAAAGACGAAACAGC | 1.96 ± 0.014 | 2.01 ± 0.03 |
| GCUGUCACCGGUGCUUGGUACGUUAUAUUCAGCCGGUCUGAUGAGUCUAGCGAGAGACGAAACAGC | 1.886 ± 0.014 | 1.998 ± 0.012 |
| GCUGUCACCGGUGCUUGGUACGUUAUAUUCAGCCGGUCUGAUGAGUCUAGCGAUAGACGAAACAGC | 1.982 ± 0.0033 | 2 ± 0.028 |
| GCUGUCACCGGUGCUUGGUACGUUAUAUUCAGCCGGUCUGAUGAGUCUAGCGACAGACGAAACAGC | 1.99 ± 0.011 | 2.0338 ± 0.00013 |
| GCUGUCACCGGUGCUUGGUACGUUAUAUUCAGCCGGUCUGAUGAGUCUAGCCUUAGACGAAACAGC | 2.0374 ± 0.0006 | 2.02 ± 0.037 |
| GCUGUCACCGGUGCUUGGUACGUUAUAUUCAGCCGGUCUGAUGAGUCUAGCCUCAGACGAAACAGC | 2.049 ± 0.012 | 2.03 ± 0.029 |
| GCUGUCACCGGUGCUUGGUACGUUAUAUUCAGCCGGUCUGAUGAGUCUUGCCUAAGACGAAACAGC | 2.03 ± 0.023 | 2.03 ± 0.023 |

| Variant | normalized RNA/DNA level without ligand (log10) ((6R,S)-folinic acid [1]) | normalized RNA/DNA level with ligand (log10) ((6R,S)-folinic acid [2]) |
| --- | --- | --- |
| GCUGUCACCGGUGCUUGGUACGUUAUAUUCAGCCGGUCUGAUGAGUCUUGCCUCAGACGAAACAGC | 2.065 ± 0.0067 | 2 ± 0.065 |
| GCUGUCACCGGUGCUUGGUACGUUAUAUUCAGCCGGUCUGAUGAGUCUUGCCUUAGACGAAACAGC | 2.0129 ± 0.0012 | 2.011 ± 0.018 |
| GCUGUCACCGGUGCUUGGUACGUUAUAUUCAGCCGGUCUGAUGAGUCUUGCCGUAGACGAAACAGC | 2.009 ± 0.019 | 2.02 ± 0.042 |
| GCUGUCACCGGUGCUUGGUACGUUAUAUUCAGCCGGUCUGAUGAGUCUUGCCGAAGACGAAACAGC | 1.9547 ± 0.0011 | 2.02 ± 0.046 |
| GCUGUCACCGGUGCUUGGUACGUUAUAUUCAGCCGGUCUGAUGAGUCUUGCCGCAGACGAAACAGC | 2.03 ± 0.031 | 2.02 ± 0.048 |
| GCUGUCACCGGUGCUUGGUACGUUAUAUUCAGCCGGUCUGAUGAGUCUUGCGCAAGACGAAACAGC | 1.951 ± 0.002 | 1.98 ± 0.033 |
| GCUGUCACCGGUGCUUGGUACGUUAUAUUCAGCCGGUCUGAUGAGUCUCGCCUGAGACGAAACAGC | 2.057 ± 0.011 | 2.056 ± 0.002 |
| GCUGUCACCGGUGCUUGGUACGUUAUAUUCAGCCGGUCUGAUGAGUCUCGCCUUAGACGAAACAGC | 2.0227 ± 0.00028 | 2.007 ± 0.018 |
| GCUGUCACCGGUGCUUGGUACGUUAUAUUCAGCCGGUCUGAUGAGUCUCGCCUAAGACGAAACAGC | 2.05 ± 0.0096 | 2.05 ± 0.061 |
| GCUGUCACCGGUGCUUGGUACGUUAUAUUCAGCCGGUCUGAUGAGUCUCGCCUCAGACGAAACAGC | 2.039 ± 0.0057 | 1.992 ± 0.015 |
| GCUGUCACCGGUGCUUGGUACGUUAUAUUCAGCCGGUCUGAUGAGUCUGGCCGCAGACGAAACAGC | 2.073 ± 0.012 | 2.083 ± 0.011 |
| GCUGUCACCGGUGCUUGGUACGUUAUAUUCAGCCGGUCUGAUGAGUCUGGCCGGAGACGAAACAGC | 2.08 ± 0.021 | 2.051 ± 0.015 |
| GCUGUCACCGGUGCUUGGUACGUUAUAUUCAGCCGGUCUGAUGAGUCUGGCCGUAGACGAAACAGC | 2.0789 ± 0.0012 | 2.02 ± 0.007 |
| GCUGUCACCGGUGCUUGGUACGUUAUAUUCAGCCGGUCUGAUGAGUCUGGCGCCAGACGAAACAGC | 2.093 ± 0.017 | 2.07 ± 0.023 |
| GCUGUCACCGGUGCUUGGUACGUUAUAUUCAGCCGGUCUGAUGAGUCUGGCGCAAGACGAAACAGC | 2.06 ± 0.0043 | 2.051 ± 0.019 |
| GCUGUCACCGGUGCUUGGUACGUUAUAUUCAGCCGGUCUGAUGAGUCUGGCGAAAGACGAAACAGC | 2.051 ± 0.0044 | 2.04 ± 0.021 |
| GCUGUCACCGGUGCUUGGUACGUUAUAUUCAGCCGGUCUGAUGAGUCUGGCGAGAGACGAAACAGC | 2.05 ± 0.017 | 2.018 ± 0.018 |
| GCUGUCACCGGUGCUUGGUACGUUAUAUUCAGCCGGUCUGAUGAGUCUAGCCGCAGACGAAACAGC | 2.037 ± 0.0083 | 2.02 ± 0.044 |
| GCUGUCACCGGUGCUUGGUACGUUAUAUUCAGCCGGUCUGAUGAGUCUAGCCGGAGACGAAACAGC | 2.068 ± 0.019 | 2.01 ± 0.045 |
| GCUGUCACCGGUGCUUGGUACGUUAUAUUCAGCCGGUCUGAUGAGUCUAGCCGAAGACGAAACAGC | 2.004 ± 0.0033 | 2.02 ± 0.025 |

Source: the supplement of paper PMC6757056
